The text below walks through data of PMC5976931.

This test deals with B7-1 (mouse (endogenous in mouse podocytes)) (UniProt Q00609).
Chain of UniProt Q00609 (Q00609 38-306): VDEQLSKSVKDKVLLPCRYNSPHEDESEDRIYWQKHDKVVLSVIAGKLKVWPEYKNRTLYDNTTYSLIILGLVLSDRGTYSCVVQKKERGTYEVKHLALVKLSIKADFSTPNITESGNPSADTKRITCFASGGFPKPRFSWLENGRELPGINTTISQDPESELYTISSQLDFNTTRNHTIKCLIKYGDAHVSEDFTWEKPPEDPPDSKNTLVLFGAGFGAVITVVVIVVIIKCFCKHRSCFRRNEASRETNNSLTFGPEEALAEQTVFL

As for “CD28 (from UniProt P31041 20-218) (receptor)”, the late apoptosis rate of LPS-treated podocytes cocultured with γδT cells (Group D), Annexin-PI, 48 hours was determined as 10.2%; the late apoptosis rate of LPS-treated podocytes cocultured with γδT cells and treated with the CD28/B7-1 blocker CTLA4-Ig, 100 μg/ml (Group E), Annexin-PI, 48 hours turned out to be 6.43%; the phosphor-SRC immunofluorescence intensity in LPS-treated podocytes cocultured with γδT cells (Group D) is 142; the phosphor-SRC immunofluorescence intensity in LPS-treated podocytes cocultured with γδT cells and treated with the CD28/B7-1 blocker CTLA4-Ig, 100 μg/ml (Group E) was determined as 24.
